Experimental findings from PMC5296760, “Structural basis of the interaction between Topoisomerase IIIβ and the TDRD3 auxiliary factor” (Scientific Reports, 2017) are described below.

T1: TOP3β TOPO domain (1–612) (human, UniProt O95985 1-612)
T1 construct: human Topoisomerase IIIβ, topoisomerase (TOPO) domain, residues 1–612; also called TOP3β (1–612); catalytic domain of TOP3β; source: baculovirus-infected Sf9 cells, purified (Glutathione Sepharose, GST removed by HRV 3C protease, SEC); not shown: GST, N-terminal, cleaved
T1 sequence (looked up): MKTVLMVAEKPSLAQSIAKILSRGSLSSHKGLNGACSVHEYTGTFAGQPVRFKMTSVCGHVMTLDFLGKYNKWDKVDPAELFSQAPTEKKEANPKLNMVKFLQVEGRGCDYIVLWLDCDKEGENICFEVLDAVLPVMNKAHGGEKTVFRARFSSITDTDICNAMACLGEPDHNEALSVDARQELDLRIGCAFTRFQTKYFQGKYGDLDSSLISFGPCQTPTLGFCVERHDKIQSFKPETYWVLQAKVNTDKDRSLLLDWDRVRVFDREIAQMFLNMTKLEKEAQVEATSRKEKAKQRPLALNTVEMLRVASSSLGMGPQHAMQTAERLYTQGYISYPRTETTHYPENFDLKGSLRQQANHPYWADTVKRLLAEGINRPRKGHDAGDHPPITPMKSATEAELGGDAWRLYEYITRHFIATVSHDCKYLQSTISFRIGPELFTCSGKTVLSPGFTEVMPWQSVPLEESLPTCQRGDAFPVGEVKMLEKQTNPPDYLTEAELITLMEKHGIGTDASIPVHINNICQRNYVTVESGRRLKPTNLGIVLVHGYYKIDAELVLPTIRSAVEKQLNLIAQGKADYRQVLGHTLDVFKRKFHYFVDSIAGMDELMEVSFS

B1: TDRD3 OB-fold domain (48–171) (domain or fragment, human, UniProt Q9H7E2-3 48-171, looked up)
chain: IGKKFLPSDINSGKVEKLEGPCVLQIQKIRNVAAPKDNEESQAAPRMLRLQMTDGHISCTAVEFSYMSKISLNTPPGTKVKLSGIVDIKNGFLLLNDSNTTVLGGEVEHLIEKWELQRSLSKHN
notes: human TDRD3 OB-fold domain, residues 48–171; purification is described only for DUF–OB; also called TDRD3 OB-fold domain alone; source: E. coli Rosetta (DE3) (as told for DUF–OB)
B2: TDRD3 (1–161) of the TOP3β–TDRD3 complex (domain or fragment, human, UniProt Q9H7E2-3 1-161, looked up)
chain: MAQVAGAALSQAGWYLSDEGIEACTSSPDKVNVNDIILIALNTDLRTIGKKFLPSDINSGKVEKLEGPCVLQIQKIRNVAAPKDNEESQAAPRMLRLQMTDGHISCTAVEFSYMSKISLNTPPGTKVKLSGIVDIKNGFLLLNDSNTTVLGGEVEHLIEKW
notes: human TDRD3 DUF1767 and OB-fold domains; made as 1–171, cut by chymotrypsin at Trp161, deposited as 1–161; also called TDRD3 DUF–OB; source: E. coli Rosetta (DE3), purified; TDRD3 (1–171) mixed with TOP3β (1–612), trimmed with chymotrypsin, SEC; not shown: GST, N-terminal, cleaved

Where “and” joins values, the source holds several entries; their conditions need not be identical. Equal entries are not always repeated.

The first assay addresses T1, TOP3β TOPO domain (1–612). Kind of assay: SEC; binding analysis using size-exclusion column chromatography (Supplementary Fig. 3a). Conditions: both partners purified. A general note: SEC sorts molecules by how far they enter the pores of the column.
On to B1, for which the binding result is listed as “binds”.

In the next assay the target is GST-TOP3β (1–612), wild type (human) (UniProt O95985). Kind of assay: pull-down; GST-TOP3β (1–612) on Glutathione Sepharose FF, 1.0 μM TDRD3 or RMI1 protein (Fig. 3f right, 4b); same buffer, 4 °C, 2 hrs; Coomassie, densitometry.
Settings: not given
In turn, “TDRD3 DUF–OB A80S/A81Q/A90K/A91P/P92S (from UniProt Q9H7E2-3 1-161) (domain or fragment)” yielded a percent of wild-type binding of 80%.
Still for that read-out and setting: for “TDRD3 DUF–OB V^79-SSGG-P^92 (from UniProt Q9H7E2-3 1-161) (domain or fragment)” the value was 40%.

The next assay has the same target. The experiment in a line: pull-down; GST-TOP3β (1–612) on Glutathione Sepharose FF, 0.2 μM TDRD3 protein (Fig. 3f left); same buffer, 4 °C, 2 hrs; Coomassie, densitometry.
Settings: not given
As for “TDRD3 DUF–OB A80S/A81S (from UniProt Q9H7E2-3 1-161) (domain or fragment)”, the percent of wild-type binding was greater than 60%.
On the same count and under the same terms, for “TDRD3 DUF–OB P82S (from UniProt Q9H7E2-3 1-161) (domain or fragment)” the value was greater than 60%; for “TDRD3 DUF–OB P92S (from UniProt Q9H7E2-3 1-161) (domain or fragment)”, 50%; for “TDRD3 DUF–OB P^82-GSGSGGS-A^90 (from UniProt Q9H7E2-3 1-161) (domain or fragment)”, 60%.
Still for that read-out and setting: the figure for “TDRD3 DUF–OB V79S (from UniProt Q9H7E2-3 1-161) (domain or fragment)” is greater than 60%; for “TDRD3 DUF–OB V79S/P82S (from UniProt Q9H7E2-3 1-161) (domain or fragment)” it is 30%.

Another assay has as its target T1, TOP3β TOPO domain (1–612). Kind of assay: crystal structure; TOP3β (1–612)–TDRD3 (1–161) complex, 3.6 Å; sitting drop, 20 °C, 50 mM Na-cacodylate pH 6.2, 10 mM MgSO4, 1.7 M Li2SO4. The following applies: both partners purified.
Consider B2, for which the binding result is listed as “binds”.

For another assay, the target named is GST-TOP3β (1–612), wild type (human) (UniProt O95985). The experiment in a line: pull-down; GST-TOP3β (1–612) on Glutathione Sepharose FF, 0.5 μM TDRD3 or RMI1 protein (Fig. 3c, 4d, 4e); 20 mM Tris-Cl pH 7.4, 200 mM NaCl, 1 mM MgCl2, 5 mM β-mercaptoethanol, 0.1% Triton X-100, 4 °C, 2 hrs; Coomassie, densitometry.
Settings: not given
In turn, “TDRD3 DUF–OB F111Y (from UniProt Q9H7E2-3 1-161) (domain or fragment)” had a percent of wild-type binding greater than 70%.
“TDRD3 DUF–OB F139V (from UniProt Q9H7E2-3 1-161) (domain or fragment)” yielded a percent of wild-type binding greater than 70%.
Same read-out and setting: for “TDRD3 DUF–OB R96M (from UniProt Q9H7E2-3 1-161) (domain or fragment)” the value was greater than 70%; for “TDRD3 DUF–OB R96M/F111Y (from UniProt Q9H7E2-3 1-161) (domain or fragment)”, greater than 70%; for “TDRD3 DUF–OB R96M/F139V (from UniProt Q9H7E2-3 1-161) (domain or fragment)”, greater than 70%.
“TDRD3 DUF–OB R96M/V109M (from UniProt Q9H7E2-3 1-161) (domain or fragment)”: the percent of wild-type binding is greater than 70%.
On the same count and under the same terms, for “TDRD3 DUF–OB R96M/V109M/F139V (from UniProt Q9H7E2-3 1-161) (domain or fragment)” the value was 35% and 30%; for “TDRD3 DUF–OB V109M (from UniProt Q9H7E2-3 1-161) (domain or fragment)”, greater than 70%.
Still for that read-out and setting: for “TDRD3 DUF–OB V109M/F111Y/F139V (from UniProt Q9H7E2-3 1-161) (domain or fragment)” the value was greater than 70%; for “TDRD3-RMI1loop (from UniProt Q9H7E2-3 1-78; Q9H9A7 95-132; Q9H7E2-3 93-161) (domain or fragment)”, 70%.
